In patent publication US20200264182A1, “METHOD FOR DETECTING PROSTATE CANCER” (J-OIL MILLS, INC., priority 2017, published 2020):

Assays:
[1] = target: serum fucosylated PSA (prostate specific antigen) (human) (UniProt P07288); assay: sandwich ELISA, anti-PSA antibody capture, biotin-lectin detection, pH 9.6; subject samples B, subgroup GS6, n=9
[2] = target: serum fucosylated PSA (prostate specific antigen) (human) (UniProt P07288); assay: sandwich ELISA, anti-PSA antibody capture, biotin-lectin detection, pH 9.6; serum of Healthy 5
[3] = target: serum fucosylated PSA (prostate specific antigen) (human) (UniProt P07288); assay: sandwich ELISA, anti-PSA antibody capture, biotin-lectin detection, pH 9.6; sera of subgroup Negative (GS5 or less), n=2
[4] = target: serum fucosylated PSA (prostate specific antigen) (human) (UniProt P07288); assay: sandwich ELISA, anti-PSA antibody capture, biotin-lectin detection, pH 9.6; subject samples B, subgroup Negative, n=9
[5] = target: serum fucosylated PSA (prostate specific antigen) (human) (UniProt P07288); assay: sandwich ELISA, anti-PSA antibody capture, biotin-lectin detection, lectin reaction pH 9.6; serum of Prostate cancer 4 (GS6)
[6] = target: serum fucosylated PSA (prostate specific antigen) (human) (UniProt P07288); assay: sandwich ELISA, anti-PSA antibody capture, biotin-lectin detection, pH 9.6; serum of Prostate cancer 8 (GS 8)
[7] = target: serum fucosylated PSA (prostate specific antigen) (human) (UniProt P07288); assay: sandwich ELISA, anti-PSA antibody capture, biotin-lectin detection, pH 9.6; serum of Healthy 7
[8] = target: serum fucosylated PSA (prostate specific antigen) (human) (UniProt P07288); assay: sandwich ELISA, anti-PSA antibody capture, biotin-lectin detection, lectin reaction pH 9.6; serum of Healthy 1
[9] = target: serum fucosylated PSA (prostate specific antigen) (human) (UniProt P07288); assay: sandwich ELISA, anti-PSA antibody capture, biotin-lectin detection, pH 9.6; subject samples B, subgroup GS7, n=11
[10] = target: serum fucosylated PSA (prostate specific antigen) (human) (UniProt P07288); assay: sandwich ELISA, anti-PSA antibody capture, biotin-lectin detection, pH 9.6; sera of the prostate cancer patient group (n=9)
[11] = target: serum fucosylated PSA (prostate specific antigen) (human) (UniProt P07288); assay: sandwich ELISA, anti-PSA antibody capture, biotin-lectin detection, lectin reaction pH 7.4; serum of Prostate cancer 4 (GS6)
[12] = target: serum fucosylated PSA (prostate specific antigen) (human) (UniProt P07288); assay: sandwich ELISA, anti-PSA antibody capture, biotin-lectin detection, pH 9.6; serum of Prostate cancer 9 (GS 8)
[13] = target: serum fucosylated PSA (prostate specific antigen) (human) (UniProt P07288); assay: sandwich ELISA, anti-PSA antibody capture, biotin-lectin detection, pH 9.6; serum of Prostate cancer 5 (GS 7)
[14] = target: serum fucosylated PSA (prostate specific antigen) (human) (UniProt P07288); assay: sandwich ELISA, anti-PSA antibody capture, biotin-lectin detection, pH 9.6; serum of Prostate cancer 1 (GS 4)
[15] = target: serum fucosylated PSA (prostate specific antigen) (human) (UniProt P07288); assay: sandwich ELISA, anti-PSA antibody capture, biotin-lectin detection, pH 9.6; serum of Healthy 6
[16] = target: serum fucosylated PSA (prostate specific antigen) (human) (UniProt P07288); assay: sandwich ELISA, anti-PSA antibody capture, biotin-lectin detection, pH 9.6; sera of the healthy person group (n=7)
[17] = target: serum fucosylated PSA (prostate specific antigen) (human) (UniProt P07288); assay: sandwich ELISA, anti-PSA antibody capture, biotin-lectin detection, pH 9.6; serum of Healthy 4
[18] = target: serum fucosylated PSA (prostate specific antigen) (human) (UniProt P07288); assay: sandwich ELISA, anti-PSA antibody capture, biotin-lectin detection, pH 9.6; serum of Healthy 2
[19] = target: serum fucosylated PSA (prostate specific antigen) (human) (UniProt P07288); assay: sandwich ELISA, anti-PSA antibody capture, biotin-lectin detection, pH 9.6; serum of Prostate cancer 4 (GS 6)
[20] = target: serum fucosylated PSA (prostate specific antigen) (human) (UniProt P07288); assay: sandwich ELISA, anti-PSA antibody capture, biotin-lectin detection, pH 9.6; sera of subgroup GS7, n=2
[21] = target: serum fucosylated PSA (prostate specific antigen) (human) (UniProt P07288); assay: sandwich ELISA, anti-PSA antibody capture, biotin-lectin detection, pH 9.6; serum of Healthy 1
[22] = target: serum fucosylated PSA (prostate specific antigen) (human) (UniProt P07288); assay: sandwich ELISA, anti-PSA antibody capture, biotin-lectin detection, pH 9.6; serum of Prostate cancer 3 (GS 6)
[23] = target: serum fucosylated PSA (prostate specific antigen) (human) (UniProt P07288); assay: sandwich ELISA, anti-PSA antibody capture, biotin-lectin detection, pH 9.6; subject samples B, subgroup GS8-9, n=6
[24] = target: serum fucosylated PSA (prostate specific antigen) (human) (UniProt P07288); assay: sandwich ELISA, anti-PSA antibody capture, biotin-lectin detection, pH 9.6; serum of Healthy 3
[25] = target: serum fucosylated PSA (prostate specific antigen) (human) (UniProt P07288); assay: sandwich ELISA, anti-PSA antibody capture, biotin-lectin detection, pH 9.6; serum of Prostate cancer 6 (GS 7)
[26] = target: serum fucosylated PSA (prostate specific antigen) (human) (UniProt P07288); assay: sandwich ELISA, anti-PSA antibody capture, biotin-lectin detection, pH 9.6; serum of Prostate cancer 2 (GS 5)
[27] = target: serum fucosylated PSA (prostate specific antigen) (human) (UniProt P07288); assay: sandwich ELISA, anti-PSA antibody capture, biotin-lectin detection, pH 9.6; serum of Prostate cancer 7 (GS 8)
[28] = target: serum fucosylated PSA (prostate specific antigen) (human) (UniProt P07288); assay: sandwich ELISA, anti-PSA antibody capture, biotin-lectin detection, pH 9.6; sera of subgroup GS8 or more, n=3
[29] = target: serum fucosylated PSA (prostate specific antigen) (human) (UniProt P07288); assay: sandwich ELISA, anti-PSA antibody capture, biotin-lectin detection, pH 9.6; sera of subgroup GS6, n=2
[30] = target: serum fucosylated PSA (prostate specific antigen) (human) (UniProt P07288); assay: sandwich ELISA, anti-PSA antibody capture, biotin-lectin detection, lectin reaction pH 7.4; serum of Healthy 1

PhoSL reaction value (mean value) [1]: 182 U/mL | PhoSL reaction value (median value) [1]: 189 U/mL | PhoSL reaction value [2]: 55.8 U/mL | PhoSL reaction value (mean value) [3]: 116 U/mL | PhoSL reaction value (median value) [3]: 116 U/mL | PhoSL reaction value (mean value) [4]: 204 U/mL | PhoSL reaction value (median value) [4]: 178 U/mL | PhoSL reaction value [5]: 179 U/mL | PhoSL reaction value [6]: 130 U/mL | PhoSL reaction value [7]: 59 U/mL | PhoSL reaction value [8]: 51.9 U/mL | PhoSL reaction value (mean value) [9]: 120 U/mL | PhoSL reaction value (median value) [9]: 211 U/mL | PhoSL reaction value (average value) [10]: 145 U/mL | PhoSL reaction value (median value) [10]: 126 U/mL | PhoSL reaction value [11]: 108 U/mL | PhoSL reaction value [12]: 251 U/mL | PhoSL reaction value [13]: 116 U/mL | PhoSL reaction value [14]: 116 U/mL | PhoSL reaction value [15]: 39.7 U/mL | PhoSL reaction value (average value) [16]: 57.3 U/mL | PhoSL reaction value (median value) [16]: 55.9 U/mL | PhoSL reaction value [17]: 74.9 U/mL | PhoSL reaction value [18]: 55.9 U/mL | PhoSL reaction value [19]: 179 U/mL | PhoSL reaction value (mean value) [20]: 142 U/mL | PhoSL reaction value (median value) [20]: 142 U/mL | PhoSL reaction value [21]: 51.9 U/mL | PhoSL reaction value [22]: 104 U/mL | PhoSL reaction value (mean value) [23]: 233 U/mL | PhoSL reaction value (median value) [23]: 240 U/mL | PhoSL reaction value [24]: 63.9 U/mL | PhoSL reaction value [25]: 168 U/mL | PhoSL reaction value [26]: 117 U/mL | PhoSL reaction value [27]: 126 U/mL | PhoSL reaction value (mean value) [28]: 130 U/mL | PhoSL reaction value (median value) [28]: 169 U/mL | PhoSL reaction value (mean value) [29]: 142 U/mL | PhoSL reaction value (median value) [29]: 142 U/mL | PhoSL reaction value [30]: 35.8 U/mL
Substance: Pholiota squarrosa lectin (PhoSL), biotin-labeled
